Experimental findings from PMC8924211 (Nature Communications, 2022) are described below.

Changes are numbered by the printed parent chain. Values joined by “and” are separate entries in the source; they are usually repeats but may differ in a detail not shown here. Equal entries are not always repeated.

Assay [1] concerns the target T1, SNAP-GAL2R A170^ECL2S (human, UniProt O43603 1-387, A170^ECL2S, Lumi4-Tb on the SNAP tag).
T1 construct: also called A170S; source: HEK293, transfected, on cells; not shown: SNAP tag, N-terminal, kept
T1 sequence (looked up): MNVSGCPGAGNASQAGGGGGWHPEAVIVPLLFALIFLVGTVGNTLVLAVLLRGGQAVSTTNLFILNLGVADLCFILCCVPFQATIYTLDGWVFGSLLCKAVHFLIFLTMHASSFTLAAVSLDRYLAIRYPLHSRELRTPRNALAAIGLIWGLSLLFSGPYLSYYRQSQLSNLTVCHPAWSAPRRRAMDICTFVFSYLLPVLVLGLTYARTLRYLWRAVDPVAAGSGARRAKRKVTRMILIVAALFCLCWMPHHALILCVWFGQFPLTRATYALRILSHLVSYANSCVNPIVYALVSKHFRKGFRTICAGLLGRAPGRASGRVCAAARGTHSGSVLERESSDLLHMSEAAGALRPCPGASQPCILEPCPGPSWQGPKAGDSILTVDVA

Assay [2] has as its target T2, SNAP-GAL2R V259^6.58A (human, UniProt O43603 1-387, V259^6.58A, Lumi4-Tb on the SNAP tag).
T2 construct: also called V259A; source: HEK293, transfected, on cells; not shown: SNAP tag, N-terminal, kept
T2 sequence (looked up): T1 sequence (looked up) with S170A, V259A

Assay [3] concerns the target SNAP-GAL2R Y271^7.32A (human) (UniProt O43603).
In assay [4] the target is T3, SNAP-GAL2R L169^ECL2A (human, UniProt O43603 1-387, L169^ECL2A, Lumi4-Tb on the SNAP tag).
T3 construct: also called L169A; source: HEK293, transfected, on cells; not shown: SNAP tag, N-terminal, kept
T3 sequence (looked up): T1 sequence (looked up) with L169A, S170A

Assay [5] deals with SNAP-GAL2R F264^ECL3A (human) (UniProt O43603).
The target of assay [6] is T4, SNAP-GAL2R L172^ECL2A (human, UniProt O43603 1-387, L172^ECL2A, Lumi4-Tb on the SNAP tag).
T4 construct: also called L172A; source: HEK293, transfected, on cells; not shown: SNAP tag, N-terminal, kept
T4 sequence (looked up): T1 sequence (looked up) with S170A, L172A

Another assay addresses T5, SNAP-GAL2R I256^6.55A (human, UniProt O43603 1-387, I256^6.55A, Lumi4-Tb on the SNAP tag).
T5 construct: also called I256A; source: HEK293, transfected, on cells; not shown: SNAP tag, N-terminal, kept
T5 sequence (looked up): T1 sequence (looked up) with S170A, I256A

In assay [7] the target is SNAP-GAL2R L266^ECL3A (human) (UniProt O43603).
Assay [8] has as its target T1, SNAP-GAL2R A170^ECL2S. This is another data set of the same source.
The target in assay [9] is T2, SNAP-GAL2R V259^6.58A. This is another data set of the same source.
Assay [10] has as its target SNAP-GAL2R Y271^7.32A (human) (UniProt O43603). This is another data set of the same source.
A further assay deals with T6, SNAP-GAL2R T267^7.28A (human, UniProt O43603 1-387, T267^7.28A, Lumi4-Tb on the SNAP tag).
T6 construct: also called T267A; source: HEK293, transfected, on cells; not shown: SNAP tag, N-terminal, kept
T6 sequence (looked up): T1 sequence (looked up) with S170A, T267A

Assay [11] has as its target T3, SNAP-GAL2R L169^ECL2A. This is another data set of the same source.
Another assay has as its target T7, SNAP-GAL2R R184^5.35A (human, UniProt O43603 1-387, R184^5.35A, Lumi4-Tb on the SNAP tag).
T7 construct: also called R184A; source: HEK293, transfected, on cells; not shown: SNAP tag, N-terminal, kept
T7 sequence (looked up): T1 sequence (looked up) with S170A, R184A

The target in the next assay is T8, SNAP-GAL2R L255^6.54A (human, UniProt O43603 1-387, L255^6.54A, Lumi4-Tb on the SNAP tag).
T8 construct: also called L255A; source: HEK293, transfected, on cells; not shown: SNAP tag, N-terminal, kept
T8 sequence (looked up): T1 sequence (looked up) with S170A, L255A

Assay [12] addresses SNAP-GAL2R F264^ECL3A (human) (UniProt O43603). The source holds these as a separate data set.
For assay [13], the target named is SNAP-GAL2R Y86^2.65A (human) (UniProt O43603).
In assay [14] the target is T4, SNAP-GAL2R L172^ECL2A. This is another data set of the same source.
Assay [15] deals with SNAP-GAL2R Q82^2.61A (human) (UniProt O43603).
For assay [16], the target named is SNAP-GAL2R I85^2.64A (human) (UniProt O43603).
For assay [17], the target named is SNAP-GAL2R L266^ECL3A (human) (UniProt O43603). The source holds these as a separate data set.

For “spexin (mature, 14 amino acids) (peptide)”, the calcium assay EC50 (spexin) in the assay with SNAP-GAL2R A170^ECL2S [1] is 95.4 nM and 151 nM (2×); in the assay with SNAP-GAL2R V259^6.58A [2], 1330 nM and 6620 nM and 6150 nM; in [3], 5960 nM and 1580 nM and 752 nM; in the assay with SNAP-GAL2R L169^ECL2A [4], 7170 nM and 5140 nM and 1830 nM; in assay [5] it was more than 100000 nM; with SNAP-GAL2R L172^ECL2A [6], 3120 nM and 10800 nM and 12100 nM. For the same substance, the calcium assay EC50 (spexin) with SNAP-GAL2R I256^6.55A is 674 nM and 438 nM and 924 nM; in assay [7], 25100 nM and 15300 nM and 12000 nM.

Regarding “galanin (full length, unlabeled) (peptide)”, the calcium assay EC50 (galanin; HEK293/Gα16 cells) with SNAP-GAL2R A170^ECL2S [8] was 10 nM and 8.08 nM and 12.4 nM; with SNAP-GAL2R V259^6.58A [9], 290 nM and 275 nM and 205 nM; in assay [10], 515 nM and 678 nM and 969 nM; in the assay with SNAP-GAL2R T267^7.28A, 3150 nM and 2330 nM and 1260 nM; with SNAP-GAL2R L169^ECL2A [11], 93.5 nM and 82.5 nM and 22.5 nM; in the assay with SNAP-GAL2R R184^5.35A, 138 nM and 115 nM and 58 nM. Also, the calcium assay EC50 (galanin; HEK293/Gα16 cells) is 153 nM and 293 nM in the assay with SNAP-GAL2R L255^6.54A; 1760 nM and 2390 nM and 3590 nM in assay [12]; 3230 nM and 2210 nM in [13]; 59 nM and 71.7 nM and 55.4 nM with SNAP-GAL2R L172^ECL2A [14]; 4680 nM and 4340 nM and 2980 nM in assay [15]; 5200 nM and 4440 nM and 1380 nM in assay [16]. Moreover, the calcium assay EC50 (galanin; HEK293/Gα16 cells) in assay [17] was 27900 nM and 7140 nM.
